The numbers were not newly measured in patent publication US20220162649A1, “NOVEL NUCLEIC ACID MODIFIERS” (THE BROAD INSTITUTE, INC., priority 2019, published 2022), which cites them from elsewhere.

To fix the notation:
B1: SaCas9 T787A: SaCas9 phosphate lock loop mutant (protein, UniProt J7RUA5 1-1053, looked up, variant T787A)
CRISPR-associated …: MKRNYILGLDIGITSVGYGIIDYETRDVIDAGVRLFKEANVENNEGRRSKRGARRLKRRRRHRIQRVKKLLFDYNLLTDHSELSGINPYEARVKGLSQKLSEEEFSAALLHLAKRRGVHNVNEVEEDTGNELSTKEQISRNSKALEEKYVAELQLERLKKDGEVRGSINRFKTSDYVKEAKQLLKVQKAYHQLDQSFIDTYIDLLETRRTYYEGPGEGSPFGWKDIKEWYEMLMGHCTYFPEELRSVKYAYNADLYNALNDLNNLVITRDENEKLEYYEKFQIIENVFKQKKKPTLKQIAKEILVNEEDIKGYRVTSTGKPEFTNLKVYHDIKDITARKEIIENAELLDQIAKILTIYQSSEDIQEELTNLNSELTQEEIEQISNLKGYTGTHNLSLKAINLILDELWHTNDNQIAIFNRLKLVPKKVDLSQQKEIPTTLVDDFILSPVVKRSFIQSIKVINAIIKKYGLPNDIIIELAREKNSKDAQKMINEMQKRNRQTNERIEEIIRTTGKENAKYLIEKIKLHDMQEGKCLYSLEAIPLEDLLNNPFNYEVDHIIPRSVSFDNSFNNKVLVKQEENSKKGNRTPFQYLSSSDSKISYETFKKHILNLAKGKGRISKTKKEYLLEERDINRFSVQKDFINRNLVDTRYATRGLMNLLRSYFRVNNLDVKVKSINGGFTSFLRRKWKFKKERNKGYKHHAEDALIIANADFIFKEWKKLDKAKKVMENQMFEEKQAESMPEIETEQEYKEIFITPHQIKHIKDFKDYKYSHRVDKKPNRELINDALYSTRKDDKGNTLIVNNLNGLYDKDNDKLKKLINKSPEKLLMYHHDPQTYQKLKLIMEQYGDEKNPLYKYYEETGNYLTKYSKKDNGPVIKKIKYYGNKLNAHLDITDDYPNSRNKVVKLSLKPYRFDVYLDNGVYKFVTVKNLDVIKKENYYEVNSKCYEEAKKLKKISNQAEFIASFYNNDLIKINGELYRVIGVNNDLLNRIEVNMIDITYREYLENMNDKRPPRIIKTIASKTQSIKKYSTDILGNLYEVKSKKHPQIIKKG
B2: D704A: SaCas9 RuvC catalytic residue mutant (protein, UniProt J7RUA5 1-1053, looked up, variant D704A)
CRISPR-associated …: MKRNYILGLDIGITSVGYGIIDYETRDVIDAGVRLFKEANVENNEGRRSKRGARRLKRRRRHRIQRVKKLLFDYNLLTDHSELSGINPYEARVKGLSQKLSEEEFSAALLHLAKRRGVHNVNEVEEDTGNELSTKEQISRNSKALEEKYVAELQLERLKKDGEVRGSINRFKTSDYVKEAKQLLKVQKAYHQLDQSFIDTYIDLLETRRTYYEGPGEGSPFGWKDIKEWYEMLMGHCTYFPEELRSVKYAYNADLYNALNDLNNLVITRDENEKLEYYEKFQIIENVFKQKKKPTLKQIAKEILVNEEDIKGYRVTSTGKPEFTNLKVYHDIKDITARKEIIENAELLDQIAKILTIYQSSEDIQEELTNLNSELTQEEIEQISNLKGYTGTHNLSLKAINLILDELWHTNDNQIAIFNRLKLVPKKVDLSQQKEIPTTLVDDFILSPVVKRSFIQSIKVINAIIKKYGLPNDIIIELAREKNSKDAQKMINEMQKRNRQTNERIEEIIRTTGKENAKYLIEKIKLHDMQEGKCLYSLEAIPLEDLLNNPFNYEVDHIIPRSVSFDNSFNNKVLVKQEENSKKGNRTPFQYLSSSDSKISYETFKKHILNLAKGKGRISKTKKEYLLEERDINRFSVQKDFINRNLVDTRYATRGLMNLLRSYFRVNNLDVKVKSINGGFTSFLRRKWKFKKERNKGYKHHAEAALIIANADFIFKEWKKLDKAKKVMENQMFEEKQAESMPEIETEQEYKEIFITPHQIKHIKDFKDYKYSHRVDKKPNRELINDTLYSTRKDDKGNTLIVNNLNGLYDKDNDKLKKLINKSPEKLLMYHHDPQTYQKLKLIMEQYGDEKNPLYKYYEETGNYLTKYSKKDNGPVIKKIKYYGNKLNAHLDITDDYPNSRNKVVKLSLKPYRFDVYLDNGVYKFVTVKNLDVIKKENYYEVNSKCYEEAKKLKKISNQAEFIASFYNNDLIKINGELYRVIGVNNDLLNRIEVNMIDITYREYLENMNDKRPPRIIKTIASKTQSIKKYSTDILGNLYEVKSKKHPQIIKKG
B3: H701A: SaCas9 RuvC catalytic residue mutant (protein, UniProt J7RUA5 1-1053, looked up, variant H701A)
CRISPR-associated …: MKRNYILGLDIGITSVGYGIIDYETRDVIDAGVRLFKEANVENNEGRRSKRGARRLKRRRRHRIQRVKKLLFDYNLLTDHSELSGINPYEARVKGLSQKLSEEEFSAALLHLAKRRGVHNVNEVEEDTGNELSTKEQISRNSKALEEKYVAELQLERLKKDGEVRGSINRFKTSDYVKEAKQLLKVQKAYHQLDQSFIDTYIDLLETRRTYYEGPGEGSPFGWKDIKEWYEMLMGHCTYFPEELRSVKYAYNADLYNALNDLNNLVITRDENEKLEYYEKFQIIENVFKQKKKPTLKQIAKEILVNEEDIKGYRVTSTGKPEFTNLKVYHDIKDITARKEIIENAELLDQIAKILTIYQSSEDIQEELTNLNSELTQEEIEQISNLKGYTGTHNLSLKAINLILDELWHTNDNQIAIFNRLKLVPKKVDLSQQKEIPTTLVDDFILSPVVKRSFIQSIKVINAIIKKYGLPNDIIIELAREKNSKDAQKMINEMQKRNRQTNERIEEIIRTTGKENAKYLIEKIKLHDMQEGKCLYSLEAIPLEDLLNNPFNYEVDHIIPRSVSFDNSFNNKVLVKQEENSKKGNRTPFQYLSSSDSKISYETFKKHILNLAKGKGRISKTKKEYLLEERDINRFSVQKDFINRNLVDTRYATRGLMNLLRSYFRVNNLDVKVKSINGGFTSFLRRKWKFKKERNKGYKHAAEDALIIANADFIFKEWKKLDKAKKVMENQMFEEKQAESMPEIETEQEYKEIFITPHQIKHIKDFKDYKYSHRVDKKPNRELINDTLYSTRKDDKGNTLIVNNLNGLYDKDNDKLKKLINKSPEKLLMYHHDPQTYQKLKLIMEQYGDEKNPLYKYYEETGNYLTKYSKKDNGPVIKKIKYYGNKLNAHLDITDDYPNSRNKVVKLSLKPYRFDVYLDNGVYKFVTVKNLDVIKKENYYEVNSKCYEEAKKLKKISNQAEFIASFYNNDLIKINGELYRVIGVNNDLLNRIEVNMIDITYREYLENMNDKRPPRIIKTIASKTQSIKKYSTDILGNLYEVKSKKHPQIIKKG
B4: E477A: SaCas9 RuvC catalytic residue mutant (protein, UniProt J7RUA5 1-1053, looked up, variant E477A)
CRISPR-associated …: MKRNYILGLDIGITSVGYGIIDYETRDVIDAGVRLFKEANVENNEGRRSKRGARRLKRRRRHRIQRVKKLLFDYNLLTDHSELSGINPYEARVKGLSQKLSEEEFSAALLHLAKRRGVHNVNEVEEDTGNELSTKEQISRNSKALEEKYVAELQLERLKKDGEVRGSINRFKTSDYVKEAKQLLKVQKAYHQLDQSFIDTYIDLLETRRTYYEGPGEGSPFGWKDIKEWYEMLMGHCTYFPEELRSVKYAYNADLYNALNDLNNLVITRDENEKLEYYEKFQIIENVFKQKKKPTLKQIAKEILVNEEDIKGYRVTSTGKPEFTNLKVYHDIKDITARKEIIENAELLDQIAKILTIYQSSEDIQEELTNLNSELTQEEIEQISNLKGYTGTHNLSLKAINLILDELWHTNDNQIAIFNRLKLVPKKVDLSQQKEIPTTLVDDFILSPVVKRSFIQSIKVINAIIKKYGLPNDIIIALAREKNSKDAQKMINEMQKRNRQTNERIEEIIRTTGKENAKYLIEKIKLHDMQEGKCLYSLEAIPLEDLLNNPFNYEVDHIIPRSVSFDNSFNNKVLVKQEENSKKGNRTPFQYLSSSDSKISYETFKKHILNLAKGKGRISKTKKEYLLEERDINRFSVQKDFINRNLVDTRYATRGLMNLLRSYFRVNNLDVKVKSINGGFTSFLRRKWKFKKERNKGYKHHAEDALIIANADFIFKEWKKLDKAKKVMENQMFEEKQAESMPEIETEQEYKEIFITPHQIKHIKDFKDYKYSHRVDKKPNRELINDTLYSTRKDDKGNTLIVNNLNGLYDKDNDKLKKLINKSPEKLLMYHHDPQTYQKLKLIMEQYGDEKNPLYKYYEETGNYLTKYSKKDNGPVIKKIKYYGNKLNAHLDITDDYPNSRNKVVKLSLKPYRFDVYLDNGVYKFVTVKNLDVIKKENYYEVNSKCYEEAKKLKKISNQAEFIASFYNNDLIKINGELYRVIGVNNDLLNRIEVNMIDITYREYLENMNDKRPPRIIKTIASKTQSIKKYSTDILGNLYEVKSKKHPQIIKKG
B5: D10A: SaCas9 RuvC catalytic residue mutant (protein, UniProt J7RUA5 1-1053, looked up, variant D10A)
CRISPR-associated …: MKRNYILGLAIGITSVGYGIIDYETRDVIDAGVRLFKEANVENNEGRRSKRGARRLKRRRRHRIQRVKKLLFDYNLLTDHSELSGINPYEARVKGLSQKLSEEEFSAALLHLAKRRGVHNVNEVEEDTGNELSTKEQISRNSKALEEKYVAELQLERLKKDGEVRGSINRFKTSDYVKEAKQLLKVQKAYHQLDQSFIDTYIDLLETRRTYYEGPGEGSPFGWKDIKEWYEMLMGHCTYFPEELRSVKYAYNADLYNALNDLNNLVITRDENEKLEYYEKFQIIENVFKQKKKPTLKQIAKEILVNEEDIKGYRVTSTGKPEFTNLKVYHDIKDITARKEIIENAELLDQIAKILTIYQSSEDIQEELTNLNSELTQEEIEQISNLKGYTGTHNLSLKAINLILDELWHTNDNQIAIFNRLKLVPKKVDLSQQKEIPTTLVDDFILSPVVKRSFIQSIKVINAIIKKYGLPNDIIIELAREKNSKDAQKMINEMQKRNRQTNERIEEIIRTTGKENAKYLIEKIKLHDMQEGKCLYSLEAIPLEDLLNNPFNYEVDHIIPRSVSFDNSFNNKVLVKQEENSKKGNRTPFQYLSSSDSKISYETFKKHILNLAKGKGRISKTKKEYLLEERDINRFSVQKDFINRNLVDTRYATRGLMNLLRSYFRVNNLDVKVKSINGGFTSFLRRKWKFKKERNKGYKHHAEDALIIANADFIFKEWKKLDKAKKVMENQMFEEKQAESMPEIETEQEYKEIFITPHQIKHIKDFKDYKYSHRVDKKPNRELINDTLYSTRKDDKGNTLIVNNLNGLYDKDNDKLKKLINKSPEKLLMYHHDPQTYQKLKLIMEQYGDEKNPLYKYYEETGNYLTKYSKKDNGPVIKKIKYYGNKLNAHLDITDDYPNSRNKVVKLSLKPYRFDVYLDNGVYKFVTVKNLDVIKKENYYEVNSKCYEEAKKLKKISNQAEFIASFYNNDLIKINGELYRVIGVNNDLLNRIEVNMIDITYREYLENMNDKRPPRIIKTIASKTQSIKKYSTDILGNLYEVKSKKHPQIIKKG

The series relates to target DNA. The following applies: SaCas9 mutants; cited from earlier work.
As to B1, the “DNA cleavage activity, in words” value was “reduced DNA cleavage activity”.

For the molecule B2, the “DNA cleavage activity, in words” value is “almost no DNA cleavage activities”.

As for B3, the “DNA cleavage activity, in words” value is given as “almost no DNA cleavage activities”.

Consider B4, for which the “DNA cleavage activity, in words” value is on record as “almost no DNA cleavage activities”.

For B5, the “DNA cleavage activity, in words” value is recorded as “almost no DNA cleavage activities”.
